Positions count from the first letter of the chain named.
B1: WT G-CSF, purified from insect cells, tag cleaved (ligand)
chain: TPLGPASSLPQSFLLKCLEQVRKIQGDGAALQEKLCATYKLCHPEELVLLGHSLGIPWAPLSSCPSQALQLAGCLSQLHSGLFLYQGLLQALEGISPELGPTLDTLQLDVADFATTIWQQMEELGMAPALQPTQGAMPAFASAFQRRAGGVLVASHLQSFLEVSYRVLRHLAQAAAENLYFQ
notes: protein of the SPR; also called G-CSFWT; wild type G-CSF
B2: WT G-CSFR(Ig-CRH), purified, tag cleaved (receptor)
chain: GSMGCGHISVSAPIVHLGDPITASCIIKQNCSHLDPEPQILWRLGAELQPGGRQQRLSDGTQESIITLPHLNHTQAFLSCSLNWGNSLQILDQVELRAGYPPAIPHNLSCLMNLTTSSLICQWEPGPETHLPTSFTLKSFKSRGNCQTQGDSILDCVPKDGQSHCSIPRKHLLLYQNMGIWVQAENALGTSMSPQLCLDPMDVVKLEPPMLRTMDPSPEAAPPQAGCLQLSWEPWQPGLHINQKCELRHKPQRGEASWALVGPLPLEALQYELCGLLPATAYTLQIRCIRWPLPGHWSDWSPSLELRTTE
notes: also called G-CSFRWT; wild type G-CSFR(Ig-CRH)
B3: design 35 G-CSFE, tag cleaved (ligand)
chain: B1 chain with T115K, E122R, E123R
notes: also called design 35 G-CSFE mutant
B4: design 34 G-CSFE, tag cleaved (ligand)
chain: B1 chain with L108K, D112R, E122R, E123R
notes: also called design 34 G-CSFE mutant
B5: design 30 G-CSFE, tag cleaved (ligand)
chain: B1 chain with L108K, D112R
notes: also called design 30 G-CSFE mutant
B6: design 307 G-CSFE, tag cleaved (ligand)
chain: B1 chain with S12E, K16D, E19K, E46R
B7: design 130 G-CSFE, tag cleaved (ligand)
chain: B1 chain with E46R, L108K, D112R
notes: also called design 137 G-CSFE; G-CSF137

Tests used:
[1] = target: T1, design 35 G-CSFR(Ig-CRH)E, tag cleaved (human, UniProt Q99062 26-331); assay: SPR, WT G-CSF against design 35 G-CSFR(Ig-CRH)E, single-cycle kinetics
T1 chain: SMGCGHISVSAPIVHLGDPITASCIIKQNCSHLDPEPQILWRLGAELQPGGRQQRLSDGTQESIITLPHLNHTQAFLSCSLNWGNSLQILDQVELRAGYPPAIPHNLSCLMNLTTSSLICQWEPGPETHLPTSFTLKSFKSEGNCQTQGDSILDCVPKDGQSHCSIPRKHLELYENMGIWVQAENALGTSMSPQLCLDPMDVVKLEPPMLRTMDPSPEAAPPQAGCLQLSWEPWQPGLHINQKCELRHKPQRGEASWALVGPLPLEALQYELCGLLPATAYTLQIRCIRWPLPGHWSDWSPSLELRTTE

[2] = target: T2, design 30 G-CSFR(Ig-CRH)E, tag cleaved (human, UniProt Q99062 26-331); assay: SPR, WT G-CSF against design 30 G-CSFR(Ig-CRH)E, single-cycle kinetics
T2 construct: also called Design 30 G-CSFR(Ig-CRH)E mutant
T2 chain: B2 chain with R169D

[3] = target: T3, design 34 G-CSFR(Ig-CRH)E, tag cleaved (human, UniProt Q99062 26-331); assay: SPR, WT G-CSF against design 34 G-CSFR(Ig-CRH)E; steady state derived affinity constant
T3 construct: also called Design 34 G-CSFR(Ig-CRH)E mutant
T3 chain: T1 chain with R168D, E172L, E175Q

[4] = target: B1; assay: SPR (Biacore T200, 25 °C), single-cycle kinetics, 1:1 Langmuir fit; lower end of the range found for the WT:WT pair
Experimental: (§1) To assess binding affinity of G-CSFE to G-CSFRWT, recombinant G-CSFRWT purified as described in Example 5 was captured as described above in this Example. Using single-cycle kinetics, six concentrations of a two-fold dilution series of each G-CSFE mutant starting at […] with a blank buffer control were sequentially injected as described above. The same sample titration was also performed on a reference cell with no variants captured. The G-CSFRWT surface was regenerated as described above.
(§2) Double-referenced sensorgrams from duplicate or triplicate repeat injections were analyzed using Biacore™ T200 Evaluation Software v3.0 and fit to the 1:1 Langmuir binding model.
(§3) Kinetic-derived affinity constants (KD) where obtained by fitting the association and dissociation phases of the curves. The KD of WT G-CSF for WT G-CSFR(Ig-CRH) ranged between 1.8-2.5E-9. For the cases in which the kinetic parameters could not be fit an attempt was made to derive a steady state affinity constant. In those cases, the KD fold change was calculated from the steady state derived KD for the WT G-CSF:WT G-CSFR(Ig-CRH) pair and is indicated in Table 7.

[5] = target: B2; assay: SPR, WT G-CSFR(Ig-CRH) amine-coupled, G-CSFE injected, single-cycle kinetics
Experimental: (§4) The SPR binding assays were carried out on a Biacore T200 instrument (GE Healthcare, Mississauga, ON, Canada) with PBS-T (PBS+0.05% (v/v) Tween 20) running buffer at a temperature of 25° C. CM5 Series S sensor chip, Biacore amine coupling kit (NHS, EDC and 1 M ethanolamine), and 10 mM sodium acetate buffers were all purchased from GE Healthcare. PBS running buffer with 0.05% Tween20 (PBS-T) was purchased from Teknova Inc. (Hollister, CA). Designs were assessed in three different immobilization orientations.
as §1

[6] = target: T1, design 35 G-CSFR(Ig-CRH)E, tag cleaved; assay: SPR, G-CSFRE amine-coupled, G-CSFE injected, single-cycle kinetics
Experimental: as §4
(§5) To determine binding affinity of G-CSFE to G-CSFRE the G-CSFRE mutant was captured by standard amine coupling as described by the manufacturer (GE LifeSciences). Briefly, immediately after EDC/NHS activation, a 5 μg/mL solution of G-CSFRE in 10 mM NaOAc, pH 5.0, was injected at a flow rate of 5 μL/min until a receptor density of ˜700-900 RU was reached. The remaining active groups were quenched by a 420 s injection of 1 M ethanolamine hydrochloride-NaOH pH 8.5 at 10 μL/min. Using single-cycle kinetics, six concentrations of a two-fold dilution series of the corresponding G-CSFE mutant starting at 200 nM with a blank buffer control were sequentially injected at 25 μL/min for 300 s with a 1800 s dissociation phase, resulting in a set of sensorgrams with a buffer blank reference. The same sample titration was also performed on a reference cell with no variants captured. The chip was regenerated to prepare for the next injection cycle by one pulse of 10 mM glycine/HCl, pH 2.0, for 30 s at 30 μL/min.
as §2

[7] = target: T3, design 34 G-CSFR(Ig-CRH)E, tag cleaved; assay: as above
Experimental: as §4, §5, §2

[8] = target: T2, design 30 G-CSFR(Ig-CRH)E, tag cleaved; assay: as above
Experimental: as §4, §5, §2

[9] = target: B2; assay: SPR (Biacore T200), WT receptor amine-coupled, cytokine injected
Experimental: as §4, §1, §2

[10] = target: T4, design 307 G-CSFR(Ig-CRH)E, tag cleaved (human, UniProt Q99062 26-331); assay: SPR, G-CSFRE amine-coupled, G-CSFE injected; steady state derived affinity constant
T4 chain: T1 chain with R42E, E142R, E172L, E175Q, D198K, D201K, R289E
Experimental: as §5, §2, §3

[11] = target: T5, design 134 G-CSFR(Ig-CRH)E, tag cleaved (human, UniProt Q99062 26-331); assay: SPR, G-CSFRE amine-coupled, G-CSFE injected, single-cycle kinetics
T5 construct: also called design 137 G-CSFR(Ig-CRH)E
T5 chain: T1 chain with R42E, R168D, E172L, E175Q
Experimental: as §4, §5, §2

[12] = target: T6, design 130 G-CSFR(Ig-CRH)E, tag cleaved (human, UniProt Q99062 26-331); assay: as above
T6 construct: also called 130 ECD (Ig-CRH)
T6 chain: T1 chain with R42E, E142R, R168D, E172L, E175Q
Experimental: as §4, §5, §2

[13] = target: B2; assay: SPR, single-cycle kinetics, G-CSFR(Ig-CRH) on the chip, G-CSF injected
Experimental: as §4, §1, §2

B1 was tested, and the “KD fold change (against WT:WT)” value [1] was 19 fold, the “KD fold change (against WT:WT)” value [2] was 774 fold and the “KD fold change (against WT:WT)” value [3] was 4260 fold.

Binder B2 has a Kd [4] of 1.8 to 2.5 nM.

For B3, the “KD fold change (against WT:WT)” value [5] was 5 fold and the “KD fold change (against WT:WT)” value [6] was 3.3 fold.

B4 was tested, and the “KD fold change (against WT:WT)” value [5] was 33 fold and the “KD fold change (against WT:WT)” value [7] was 5 fold.

B5 was tested, and the “KD fold change (against WT:WT)” value [5] was 20 fold and the “KD fold change (against WT:WT)” value [8] was 11 fold.

With B6 the binding result [9] was “no binding” and the “KD fold change (against WT:WT)” value [10] was 0.6 fold.

In the case of B7, the “KD fold change (against WT:WT)” value [11] is reported as 0.3 fold, the “KD fold change (against WT:WT)” value [12] is reported as 0.9 fold and the binding result [13] is reported as “no binding”.

From patent US20240254182A1 (PROVINCIAL HEALTH SERVICES AUTHORITY, published 2024)
